Results from the supplement of paper PMC10567573.

B1: NR2F2 (parent)
chain: NIPFFPDLQITDQVALLRLTWSEL
B2: WDR41 (parent)
chain: HVGELIIWDALDWTMQAYERNFWD

Variants of: B1
Test: protein stability index of a GFP-peptide fusion (GPS, HEK-293T) (PSI 1-6); higher = more stable
Details: c terminus: a fixed tail appended
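Note: lentivirally expressed fusions sorted by FACS into six bins by GFP to DsRed ratio, PSI derived from sequencing read proportions per bin multiplied by bin number.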

Protein stability index, by site and new letter:
A15: G 1.19, D 1.92
Q9: L 3.06, T 2.26, F 2.56, V 4.4, P 1.93, R 2.36, G 4.13, E 2.15, C 2.34, D 2.5, Y 2.88, H 2.84, S 2.83, I 1.92, A 2.86, N 2.63, K 1.89, M 2.9, W 2.96
P3: Q 3.08, L 1.92, A 3.65, G 2.86, N 2.28, K 3.61, I 2.13, H 1.82, E 2.12, S 1.41, V 3.79, D 2.43, W 3.62, T 2.46, C 2.88
I10: A 1.75, F 2.95, E 1.68, R 1.49, W 2.39, K 2.58, C 2.15, H 2.34, Y 3.02, Q 2.31, M 2.49, S 2.09, G 1.4, N 2.05, P 2.2, V 2.68, L 2.47, D 1.68, T 1.72
I2: Q 1.78, D 2.85, A 1.05, Y 1.47, E 2.07, H 2.1, F 2.28, W 3.13, L 1.88, R 1.94, V 2.03, M 2.5, G 1.46, N 2.02, P 2.9, K 2.25, C 2.42, S 2.38, T 2.01
T11: A 3.71, R 2.52, I 2.59, K 2.55, V 1.99, F 3.29, C 2.25, E 2.06, Y 1.46, D 1.61, S 2.96, M 3.1, P 2.02, Q 2.47, L 4.1, G 2.28, W 3.19, N 1.67, H 2.89

Variants of: B2
Test: as above
Details: c terminus: a fixed tail appended

Protein stability index, by site and new letter:
N21: T 2.15, D 1.87, G 2.56, M 3.52, E 2.14, S 2.11, I 2.9, L 3, Q 2.87
R20: P 2.05, N 2.98, C 1.24, K 1.5, E 1.46, A 1.32, L 3.16, T 3.97, S 1.56, G 1.75
Y18: S 1.07, A 3.71, R 2.81, N 2.18, E 1.12, K 2.17, H 1.6, C 3.15
D24: K 1.4, I 3.06, H 4.96, E 3.24
Q16: M 2.63, I 2.45
E19: C 2.17, D 1.67, A 1.64, I 2.09, P 1.72, N 1.91, V 1.87, T 1.44, H 2.77, Q 3.24
F22: T 3.49, K 1.41, P 1.75, L 2.35, G 2.8, W 1.74, S 1.57, M 2.71, E 3.79
W23: E 1.72, N 1.71, S 1.82, K 1.39, C 1.71, G 2.62, L 1.8, P 1.45, D 1.89, I 2.83, V 3.03
A17: C 2.5, P 1.76, T 1.74, K 2.09, I 1.15, W 3.37, H 1.63, G 1.81, F 3.37, E 2.26, N 4.42
